The text below walks through data of CN116063469A (UNIV ZHONGSHAN, dated 2023).

In the assay the target is T1, 寨卡病毒包膜蛋白的结构域III (ZIKV-EDⅢ抗原) (Zika virus (strain NCBI KU740184.2)).
T1 construct: domain: 结构域III (EDIII); also called ZIKV-EDIII; ZIKV EDIII
The assay can be described thus: SPR (OpenSPR, COOH chip), ZIKV-EDIII immobilised, nanobody as analyte, 1:1 model.

B1: 纳米抗体Nb-E5 (VHH)
VHH: SDSEVNQEAKPEVKPEVKPETHINLKVSDGSSEIFFKIKKTTPLRRLMEAFAKRQGKEMDSLRFLYDGIRIQADQTPEDLDMEDNDIIEAHREQIGGMAVQLVESGGGLVQPGGSLRLSCKVSGRPFTTYALGWFRQAPGKEREFLTVGAWRGQIFTAESVRGRFTISLDTAKNTFDLQMNSLNIEDTAVYYCAAGSRSSNTPQADPGSFDYWGQGTQVTVSSGAR
notes: no removal of the tag is told, and detection used anti-SMT3 / anti-His antibodies; From a naive alpaca phage library; not shown: 6×His tag at the N-terminus of SUMO (pET-28a-SUMO vector)
The Kd is the constant that tells how readily two partners part at equilibrium. The low end stands for tighter binding, the high end for weaker binding. Regarding B1, the Kd is 8.22 nM.
